Measurements published in the RNAGym collection of RNA variant scans (doi:10.7554/elife.90254).

B1: LINE1-full (parent)
chain: UACGUAGGUGGUUUUCCCCUGAUAGUGCUAAGGGGGCCUGGAAGUUUGGACUGGGCAGAGCUCAACACAGCGUGGCAAAGUGGCUGUGGCUAGACUGCCUCUCUGGAUUCCUCGUCACUCAGCAGGGCAUCUCUGAGAGAAAUGCC

Variants of: B1
Assay: self-cleavage, relative activity (ratio to wild type); higher = more cleavage; in vitro, sequencing; the parent is a self-cleaving ribozyme

| Variant | self-cleavage |
| --- | --- |
| U15C A31G | 0.75 |
| U39C A117G | 1.37 |
| U39C A117U | 1.49 |
| A59G U91C | 0.11 |
| U45C A141G | 1.37 |
| U26C U39G | 0.65 |
| U15A U23C | 1.17 |
| U23A A136U | 1.7 |
| C37A U96C | 0.08 |
| A69U A117G | 0.08 |
| U115C G125A | 1.82 |
| U20G A57U | 0.21 |
| A2G G75A | 0.7 |
| A50U U102C | 1.17 |
| G35U A43G | 1.93 |
| U20G U112C | 0.76 |
| A69U A129G | 0.07 |
| U5A G36A | 1.19 |
| G88A G114A | 0.08 |
| U73C G125C | 2.47 |
| U12C C38U | 1.16 |
| U46G U62C | 0 |
| A67U A94G | 0.02 |
| U62A C84U | 0.04 |

| Variant | self-cleavage |
| --- | --- |
| U20C A31G | 1.16 |
| G70C U102A | 0.07 |
| U112A G144A | 1.32 |
| U13C U14A | 0.79 |
| A57G A94G | 0.16 |
| U26C A31U | 1.05 |
| U46C A140G | 1.41 |
| U39G U47C | 0.52 |
| U62A U104A | 0.04 |
| U29C A30G | 0.89 |
| G54A U119A | 0.55 |
| C19U A141G | 0.99 |
| U52C G74U | 1.79 |
| A31G C131U | 0.61 |
| U9C A42C | 0.88 |
| U39C G127U | 0.87 |
| U1C C37G | 0.73 |
| U46A A129G | 1.16 |
| A50G A64G | 0.42 |
| U1C G114C | 2.19 |
| U47G U62A | 0.03 |
| A50U C63A | 0 |
| A50G G53U | 0 |
| U47A G86A | 0.07 |

| Variant | self-cleavage |
| --- | --- |
| U1G A42U | 0.28 |
| A43G U134G | 0.97 |
| U9C A64U | 0.6 |
| A124C A140G | 1.88 |
| U9A C98U | 0.28 |
| U26A U39A | 0.99 |
| U102C A136G | 1.34 |
| C51U A79G | 1.53 |
| A77G A138G | 2.3 |
| C99U A140G | 0.71 |
| C76A U102C | 1.39 |
| U52C U112A | 0.99 |
| U87G A121U | 0.2 |
| A2G U26C | 0.88 |
| G33A A57G | 0.56 |
| U14C A78U | 1.44 |
| U13C G55A | 0.23 |
| U91A U143A | 0.52 |
| G33U A124U | 1.84 |
| U26A G72A | 0.94 |
| A136U A142G | 1.52 |
| U119A A140G | 1.29 |
| C28U A142G | 0.79 |
| G34C | 1.47 |

| Variant | self-cleavage |
| --- | --- |
| U15G U47A | 1.16 |
| U14C A57G | 0.89 |
| A42C U134A | 0.83 |
| U45G A117G | 0 |
| U91A A129U | 0.86 |
| A2U A57G | 0.6 |
| G33A A43G | 1.29 |
| U45A A57U | 0.08 |
| U132G A141G | 1.22 |
| C95A U143C | 0.08 |
| U39C G40C | 1.48 |
| U112A U132C | 1.42 |
| G27U G41U | 1.26 |
| G122A G137U | 1.23 |
| G48U U119C | 1.95 |
| A78G G89C | 0.07 |
| A94G A129U | 0.22 |
| G7U U46C | 0.47 |
| U20A A77G | 2.25 |
| A77G U132A | 2.34 |
| A24G C63A | 0 |
| A69U G80A | 0.3 |
| A6C U119A | 1.36 |
| G86A U102C | 0.18 |

| Variant | self-cleavage |
| --- | --- |
| C3A A142G | 0.82 |
| G44U U109C | 1.31 |
| A6U U100C | 0.76 |
| A129U U132C | 1.3 |
| C51U U62A | 0.07 |
| U46C G48A | 1.04 |
| U45C U52A | 1.33 |
| U26A U104C | 1.28 |
| A67U U91C | 0.05 |
| G74A U115A | 1.45 |
| U9G U13G | 1.31 |
| A43U U134A | 1.13 |
| U45C C113A | 2.37 |
| U5G U132C | 1.04 |
| C101U U132A | 2.01 |
| G4A U85C | 0.13 |
| A129U A140U | 0.88 |
| C37U U39A | 1.12 |
| G10A U115C | 1.51 |
| A77U A79G | 1.48 |
| G8A U9C | 0.63 |
| A6G U9A | 0.75 |
| G89U A142G | 0.03 |
| A79C U119A | 1.01 |

| Variant | self-cleavage |
| --- | --- |
| U13C A107U | 1.14 |
| U13C G93U | 0.03 |
| U20C U52A | 0.69 |
| U13G A138G | 1.45 |
| U73C C99U | 1.06 |
| U109C U115G | 1.04 |
| A67G U85C | 0.1 |
| A124G U143A | 0.98 |
| A64U G114A | 0.41 |
| U47C G54A | 0.59 |
| C113U A138G | 1.54 |
| U87C C120A | 0.18 |
| U13C C113A | 0.44 |
| U5A U102C | 0.95 |
| A79G G122A | 1.31 |
| G11A C84U | 0.15 |
| U5C A94G | 0.46 |
| A50G A59G | 0.26 |
| U62G U115G | 0.14 |
| U15G A78U | 2.03 |
| U9C G33A | 1.01 |
| U1C G93A | 0.09 |
| A65U U102A | 0.17 |
| U9G A107U | 0.46 |

| Variant | self-cleavage |
| --- | --- |
| C38U U115C | 1.6 |
| C71U C90A | 0.04 |
| A69G G89A | 0.03 |
| A67G C131A | 0.72 |
| A50G G139U | 0.37 |
| G74A A138G | 1.26 |
| A6G U112A | 0.95 |
| A65G U134G | 0.03 |
| U39A G60A | 0.05 |
| U96C C123U | 0.04 |
| A42U A65G | 0.06 |
| G32A | 1.23 |
| U5C G82A | 1.18 |
| G4C A78G | 0.81 |
| U14A U115C | 1.06 |
| U20C G60U | 0.05 |
| G41C U46A | 0.25 |
| A22U U87A | 0.1 |
| G72A U85C | 0.08 |
| G41A A94G | 0.13 |
| C3U A59G | 0.1 |
| G97A A140U | 0.02 |
| A65U U119G | 0.45 |
